# Assay results published in patent US20250223358A1 (ANTENGENE BIOLOGICS, published 2025).
# Read-outs that look alike come from different tables or passages of the source.
# Tests used:
# human CD3 [1] = molecular target: T1, human CD3 (human, UniProt P07766 23-207; P04234 22-171; P09693 23-182); test: cell-based or functional assay
# cynomolgus CD3 [2] = molecular target: T2, cynomolgus CD3 (cynomolgus (Macaca fascicularis), UniProt Q95LI5 22-198; Q95LI8 22-171; Q95LI7 23-181); test: FACS on 293T-cynoCD3mix cells
# T2 construct: whole, on cells; composition of the 'mix' not defined; also called cynoCD3
# human CD3 [3] = molecular target: T1, human CD3; test: FACS on Jurkat cells
# human CD3 [4] = molecular target: T1, human CD3; test: cell-based or functional assay; remark: listed apart in the source
# cynomolgus CD3 [5] = molecular target: T2, cynomolgus CD3; test: FACS on 293T-cynoCD3mix cells; remark: listed apart in the source
# human CD3 [6] = molecular target: T1, human CD3; test: FACS on Jurkat cells; remark: listed apart in the source
# human CD3 [7] = molecular target: T1, human CD3; test: FACS on HEK293T-hCD3mix cells; note: test concentration or dose not given here
# human CD3 [8] = molecular target: T1, human CD3; test: FACS on Jurkat cells; remark: listed apart in the source
# human CD3 [9] = molecular target: T1, human CD3; test: FACS on Jurkat cells; remark: listed apart in the source
# human CD3 [10] = molecular target: T1, human CD3; test: cell-based or functional assay; remark: listed apart in the source
# T2 sequence (Q95LI5 22-198, chain 1 of 3): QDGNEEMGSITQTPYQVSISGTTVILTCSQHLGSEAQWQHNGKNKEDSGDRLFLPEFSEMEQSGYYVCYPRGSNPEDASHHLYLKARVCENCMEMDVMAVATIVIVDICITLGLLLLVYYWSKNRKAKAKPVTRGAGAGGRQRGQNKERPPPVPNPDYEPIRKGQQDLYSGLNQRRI
# T2 sequence (Q95LI8 22-171, chain 2 of 3): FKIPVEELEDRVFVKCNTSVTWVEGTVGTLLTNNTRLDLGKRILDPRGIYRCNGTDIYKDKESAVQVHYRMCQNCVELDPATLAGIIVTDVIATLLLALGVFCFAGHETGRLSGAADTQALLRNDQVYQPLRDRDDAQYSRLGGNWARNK
# T2 sequence (Q95LI7 23-181, chain 3 of 3): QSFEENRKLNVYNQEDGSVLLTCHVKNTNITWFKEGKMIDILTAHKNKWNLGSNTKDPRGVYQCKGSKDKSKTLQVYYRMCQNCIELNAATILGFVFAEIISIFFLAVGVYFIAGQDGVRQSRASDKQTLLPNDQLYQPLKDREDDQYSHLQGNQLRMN
# T1 sequence (P07766 23-207, chain 1 of 3): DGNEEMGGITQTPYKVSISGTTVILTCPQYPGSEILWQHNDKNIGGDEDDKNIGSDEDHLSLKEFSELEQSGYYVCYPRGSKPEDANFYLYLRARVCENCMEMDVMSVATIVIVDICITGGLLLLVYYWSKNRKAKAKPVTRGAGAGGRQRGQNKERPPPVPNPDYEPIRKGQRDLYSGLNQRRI
# T1 sequence (P04234 22-171, chain 2 of 3): as the sequence (Q95LI8 22-171, chain 2 of 3) above, with V5I, K15N, V20I, T32S, N33D, N34I, A64T, N74S, L83V, R141H counted along it
# T1 sequence (P09693 23-182, chain 3 of 3): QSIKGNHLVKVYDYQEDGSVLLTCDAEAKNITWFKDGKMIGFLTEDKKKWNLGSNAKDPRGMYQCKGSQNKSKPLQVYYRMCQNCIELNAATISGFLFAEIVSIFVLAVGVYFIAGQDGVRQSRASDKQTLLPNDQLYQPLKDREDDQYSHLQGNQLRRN
binder,measurement,setting,value
"hu147E2-L3H4 (antibody, V domains shown, humanized 147E11E2; also called hu14E2-L3H4) VH: EVQLVQSGAEVKKPGSSVKVSCKASGYTFTSYWMHWVRQAPGQGLEWIGNINPSNGATNYNEKFKSRATLTVDKSTSTAYMELSSLRSEDTAVYYCARDRSSQYYFDYWGQGTTVTVSS VL: DIQMTQSPSSLSASVGDRVTITCKSSQSLLNSRSRKNYLAWYQQKPGKAPKLLIYWASTRESGVPSRFSGSGSGTDFTLTISSLQPEDFATYYCTQSYTLRTFGGGTKVEIK","EC50_Fold change (Jurkat-NFAT-luciferase activation, normalized to ch147E11E2)",human CD3 [1],2.12 fold
same,"Top FACS signal_Fold change (Jurkat-NFAT-luciferase activation, normalized to ch147E11E2)",human CD3 [1],0.6 fold
same,EC50,cynomolgus CD3 [2],1.29 nM
same,Top signal,cynomolgus CD3 [2],16100
same,EC50,human CD3 [3],0.671 nM
same,Top FACS signal,human CD3 [3],2680
"ch126A11A4 (antibody, V domains shown) VH: QVQLQQPGTELVKPGASVKLSCKASGYTFTSYWMHWVKQRPEQGLEWIGNINPSNGDTNYNEKFKSKATLTVDKASNTAYMQLSSLTSEDSAVYYCGRDRSSQYYFDYWGQGTTLTVSS VL: DIVMSQSPSSLAVSAGEKVTMSCKSSQSLLNSRTRKNYLAWYQQKPGQSPKLLIYWASTRESGVPDRFTGSGSGTDFTLTISSVQAEDLAVYFCKQSFILRTFGGGTKLEIK",EC50 (Jurkat-NFAT-luciferase activation),human CD3 [4],33.6 nM
same,Top signal (Jurkat-NFAT-luciferase activation),human CD3 [4],682
same,EC50,cynomolgus CD3 [5],2.91 nM
same,Top signal,cynomolgus CD3 [5],57000
same,EC50,human CD3 [6],0.567 nM
same,Top signal,human CD3 [6],1760
"ch147E11E2 (antibody, V domains shown) VH: QVQLQQPGTELVKPGTSVKLSCKASGYTFTSYWMHWVKQRPGQGLEWIGNINPSNGATNYNEKFKSKATLTVDKSSSTAYMQLSSLTSEDSAVYYCARDRSSQYYFDYWGQGTTLTVSS VL: DIVMSQSPSSLAVSAGEKVTMSCKSSQSLLNSRSRKNYLAWYQQKPGQSPKLLIYWASTRESGVPDRFTGSGSGTDFTLTISSVQAEDLAVYYCTQSYTLRTFGGGTKLEIK",EC50 (Jurkat-NFAT-luciferase activation),human CD3 [4],33 nM
same,Top signal (Jurkat-NFAT-luciferase activation),human CD3 [4],421
same,"EC50_Fold change (Jurkat-NFAT-luciferase activation, normalized to ch147E11E2)",human CD3 [1],1 fold
same,"Top FACS signal_Fold change (Jurkat-NFAT-luciferase activation, normalized to ch147E11E2)",human CD3 [1],1 fold
same,EC50,cynomolgus CD3 [5],2.19 nM
same,Top signal,cynomolgus CD3 [5],53900
same,EC50,human CD3 [6],0.419 nM
same,Top signal,human CD3 [6],2780
same,EC50,cynomolgus CD3 [2],1.23 nM
same,Top signal,cynomolgus CD3 [2],17800
same,EC50,human CD3 [3],0.649 nM
same,Top FACS signal,human CD3 [3],2780
"ch147C6F3 (antibody, V domains shown) VH: QVQLQQPGTELVKPGASVKLSCKASGYTFDSYWMHWVKQRPGQGLEWIGNLNPSNGEINYNEKFKHKATLTVDKSSSTAYMQLSSLTSEDSAVYYCSRDRSSQYYFDYWGQGTTLTVSS VL: DIVMSQSPSSLAVSAGEKVTLSCKSSQSLLNSRTRKNYLAWYQQKSGQSPKLLMYWASTRESGVPDRFTGSGSGTDFTLTITNVQAEDLAVYYCKQSYILRTFGGGTKLEIK",EC50 (Jurkat-NFAT-luciferase activation),human CD3 [4],57.4 nM
same,Top signal (Jurkat-NFAT-luciferase activation),human CD3 [4],428
same,EC50,cynomolgus CD3 [5],4.15 nM
same,Top signal,cynomolgus CD3 [5],55200
same,EC50,human CD3 [6],1.77 nM
same,Top signal,human CD3 [6],2280
"2-F12-A6-G2 (antibody, V domains shown, mouse monoclonal (hybridoma) antibody) VH: EVQLVESRPGLVAPSQSLSITCTVSGFSLTSYGVSWVRQPPGKGLEWLGVIWGDGNTNYNSDLKTSLSISKDNSKSQVFLKLDSLQTDDTATYYCAKVSYWYFDVWGTGTTVTVSS VL: DIQLTQPPASLSASVGETVTITCRASENIYSYLAWYQQKQGKSPQLLVYNAKTLPEGVPSRFSGSGSGTQFSLKINSLQPEDFGTYYCQHHYGTPPTFGTGTKLELK",FACS MFI,human CD3 [7],53800 MFI
"7-D8-G12-E4 (antibody, V domains shown, mouse monoclonal (hybridoma) antibody) VH: EVKLVESGGGLVKPGGSLKLSCAASGFTFSSYPMSWVRQTPAKRLEWVATISSGGGNTYYPDSVKGRFTISRDNARNTLYLQMSSLRSEDTAMYYCARGLYWYFDVWGAGTTVTVSS VL: DIVLTQSPLSLPVSLGDQASISCRSSQSIAHSNGDTYLEWYLQNPGQSPKLLIYKVSNRISGVPDRFSGSGSGTDFTLKISRVEAEDLGVYYCFQGSHVPYTFGGGTKLEIK",FACS MFI,human CD3 [7],65200 MFI
"3-C6-C11-F12 (antibody, V domains shown, mouse monoclonal (hybridoma) antibody) VH: EVHLVESGGGLVQPGGSRKLSCAGSGFTFSTYGMHWVRQAPEKGLEWVAYISNGGSTIYYADSVKGRFTISRDNPNDTLFLHMTSLGSEDTAMYYCARPTWGGFAYWGQGTLVTVSA VL: DIVLTQSPLSLPVSLGDQASISCRSSQSIAHSNGDTYLEWYLQNPGQSPKLLIYKVSNRISGVPDRFSGSGSGTDFTLKISRVEAEDLGVYYCFQGSHVPYTFGGGTKLEIK",FACS MFI,human CD3 [7],21800 MFI
"7-D9-G10-H2 (antibody, V domains shown, mouse monoclonal (hybridoma) antibody) VH: EVQLQQSGPELVKPGASVKISCKASGYSFTGYFMNWVKQSHGKSLEWIGRFNPYNGDTFYNQNFKGKATLTVDKSSSTAHMELRSLTSEDSAVYYCARGDYWGQGTTLTVSS VL: not shown",FACS MFI,human CD3 [7],51000 MFI
"16-F2-C11-D9 (antibody, V domains shown, mouse monoclonal (hybridoma) antibody) VH: EVQLQQSGPELVKPGASVKMSCKASGYTFTDFNIHWVKQSLGKSLEWIGYINPNDGGSTYNQKFKGKATLTINKSSSSAYMELRSLTSEDSAVYYCAIPFLDSWGQGTSVTVSS VL: TLMMTQSPSSMYASLGERVTITCKASQDINSYLRWYQQKPGKSPKTLIYGASSLVDGVPSRFSGRGSGQDYSLTISSLEYEDMGIYYCLQYDEVPLTFGAGTKLELK",FACS MFI,human CD3 [7],80300 MFI
"4-F12-F1-A4 (antibody, V domains shown, mouse monoclonal (hybridoma) antibody) VH: EVKLVESGGGLVKPGGSLKLSCAASGFTFSSYTMSWIRQTPAKRLEWVATISSGGGNTFYADSVKGRFTISRDNARNTLNLQMSSLRSEDTAMYYCARSLYYYDGTYVRKDYYAMDYWGQGSSVTVSS VL: DIQMTQSPASLSVSVGETVTISCRASENIFSNLAWYQQKQGKSPQLLVYAATNLAEGVPSRFSGSRSGTQFSLKINSLQSEDFGSYYCQQFWGTPWTFGGGTKLEVK",FACS MFI,human CD3 [7],16800 MFI
"BMK-TCB (antibody, V domains shown, benchmark anti-CD3 antibody; also called anti-CD3 antibody developed by Roche) VH: not shown VL: QAVVTQEPSLTVSPGGTVTLTCGSSTGAVTTSNYANWVQEKPGQAFRGLIGGTNKRAPGTPARFSGSLLGGKAALTLSGAQPEDEAEYYCALWYSNLWVFGGGTKLTVL",EC50 (Jurkat-NFAT-luciferase activation),human CD3 [4],59.4 nM
same,Top signal (Jurkat-NFAT-luciferase activation),human CD3 [4],753
same,"EC50_Fold change (Jurkat-NFAT-luciferase activation, normalized to ch147E11E2; mean)",human CD3 [1],2.24 fold
same,"Top FACS signal_Fold change (Jurkat-NFAT-luciferase activation, normalized to ch147E11E2; mean)",human CD3 [1],0.5 fold
same,EC50,human CD3 [8],1.3 nM
same,Top FACS signal,human CD3 [8],2570
same,EC50,human CD3 [6],1.91 nM
same,Top signal,human CD3 [6],3140
same,EC50,human CD3 [9],1.6 nM
same,Top FACS signal,human CD3 [9],1740
same,"EC50_Fold change (Jurkat-NFAT-luciferase activation, normalized to ch40-C12-C10-E9; mean)",human CD3 [10],8.17 fold
same,"Top FACS signal_Fold change (Jurkat-NFAT-luciferase activation, normalized to ch40-C12-C10-E9; mean)",human CD3 [10],0.48 fold
same,EC50,human CD3 [3],1.35 nM
same,Top FACS signal,human CD3 [3],2370
"BMK-B219 (antibody, V domains shown, benchmark anti-CD3 antibody; also called anti-CD3 antibody developed by JNJ (Johnson & Johnson)) VH: EVQLVESGGGLVQPGGSLRLSCAASGFTFNTYAMNWVRQAPGKGLEWVARIRSKYNNYATYYAASVKGRFTISRDDSKNSLYLQMNSLKTEDTAVYYCARHGNFGNSYVSWFAYWGQGTLVTVSS VL: QTVVTQEPSLTVSPGGTVTLTCRSSTGAVTTSNYANWVQQKPGQAPRGLIGGTNKRAPGTPARFSGSLLGGKAALTLSGVQPEDEAEYYCALWYSNLWVFGGGTKLTVL",EC50 (Jurkat-NFAT-luciferase activation),human CD3 [4],68.4 nM
same,Top signal (Jurkat-NFAT-luciferase activation),human CD3 [4],811
same,EC50,cynomolgus CD3 [5],4.34 nM
same,Top signal,cynomolgus CD3 [5],60000
same,EC50,human CD3 [6],1.47 nM
same,Top signal,human CD3 [6],3000
"20-E11-E11-C2 (antibody, V domains shown, mouse monoclonal (hybridoma) antibody) VH: EVQLQQSGPEVVKPGASVKISCKASGYTFTDYYMNWVKQSHGKNLEWIGDINPIHGGISSNQKFSDKATLTVDKSSNTAYLELRSLTSEDSAIYYCARRIYYGYDWYFDVWGTGTTVTVSS VL: DIVLSQSPAIMSASPGERVTMTCSASSSVTSRYFFWYQQKPGSSPKLWIYSTSNLASGVPVRFSGSGSGTSYSLTINNMAAEDAATYYCQQYSTSPSTFGAGTKLELK",FACS MFI,human CD3 [7],55200 MFI
"40-C12-C10-E9 (antibody, V domains shown, mouse monoclonal (hybridoma) antibody) VH: EVQLQLSGPELVKPGASVKMSCKASGYTFSSYVIHWVKQKPGQGLEWIGYINPYNDVIKYNEKFKGKATLTSDKSSSTAYMELSSLTSEDSAVYYCARDSYYSYDGFAYWGQGTLVTVSA VL: QIVLTQSPAIMSASPGEKVTMTCSASSSVSYMHWYQQKSGTSPKRWIYDTSKLASGVPARFSGSGSGTSYSLTISSMEAEDAATYYCQQWSSNPPTFGGGTKVEIK",FACS MFI,human CD3 [7],13100 MFI
"8-B12-F9-B11 (antibody, V domains shown, mouse monoclonal (hybridoma) antibody) VH: EVQLVESGGGIVKPGGSRKLSCAASGFTFSDYGMHWVRQAPEKGLEWIAYISSASGKIYYADTVKGRFTISRDNAKNILFLQMTSLRSEDTAMYYCARVLRWSVNYVMDYWGQGTSVTVSS VL: DIVMTQSPSSLAVSAGEKVTMNCESSQSVLYSSNQKNYLAWYQQKPGQSPKLLIYWASTRESGVPDRFTGTGSGTDFTLTISSVQAEDLAVYYCHQYLSSWTFGGGTKLEIK",FACS MFI,human CD3 [7],67100 MFI
